Test results from the supplement of paper PMC10567573.

B1: LOC100129726 (parent)
chain: AKAADSPTRNDLESGLGHFSLRVH

Variants of: B1
Experiment: protein stability index of a GFP-peptide fusion (GPS, HEK-293T) (PSI 1-6); higher = more stable
Details: c terminus: a fixed tail appended
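Further: lentivirally expressed fusions sorted by FACS into six bins by GFP to DsRed ratio, PSI derived from sequencing read proportions per bin multiplied by bin number.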

Protein stability index: each site, then its substitutions
S20: G 3.11 | Q 3.17 | A 3.29 | W 2.25 | M 2.87 | I 1.48 | P 3.81 | V 2.21 | H 3.35 | N 3.45 | C 2.45 | L 2.09 | E 3.72 | T 3.1 | F 2.05 | Y 1.58 | K 3.4 | R 2.19 | D 3.46
F19: M 3.69 | G 4.32 | W 2.76 | N 4.24 | T 4.66 | E 4.6 | H 3.67 | A 3.95 | S 4.61 | Q 4.33 | P 4.33 | L 3.31 | Y 3.16 | D 4.6 | V 3.58 | K 4.63 | R 4.28
H24: L 2.59 | C 2.49 | Q 3.53 | V 2.61 | M 2.25 | K 3.92 | E 3.75 | A 2.92 | R 2.79 | W 2.09 | I 1.9 | G 2.64 | S 3.6 | D 3.63 | T 3.41 | N 4.15 | P 3.73 | F 2.32 | Y 1.58
L21: C 4.2 | G 4.79 | W 3.45 | D 5.01 | F 2.38 | R 2.98 | M 3.6 | Y 3.06 | T 4.08 | K 3.5 | S 4.39 | I 2.33 | P 4.25 | A 4.25 | N 4.3 | V 3.84 | E 4.38 | Q 4 | H 3.55
V23: G 4.16 | Y 2.61 | C 3.45 | T 3.49 | N 3.43 | P 4.13 | D 4.68 | L 2.88 | A 3.67 | F 2.14 | Q 3.58 | W 2.14 | S 3.48 | I 2.42 | K 4.43 | R 4.03 | E 4.69 | H 3.55 | M 3.29
R22: F 2.43 | S 2.98 | M 2.61 | D 4.28 | W 2.4 | T 2.8 | Y 2.31 | A 3.47 | V 2.71 | N 3.62 | G 3.5 | K 3.59 | C 2.27 | E 3.92 | P 4 | H 3.25 | I 2.61 | Q 2.73 | L 2.7
H18: R 3.08 | Y 2.66 | V 2.73 | S 3.73 | T 3.05 | W 1.59
